Measured values: publication PMC7244511, “Phosphoproteomics identifies dual-site phosphorylation in an extended basophilic motif regulating FILIP1-mediated degradation of filamin-C” (Communications Biology, 2020)
Blank lines part the entries; values can stand above or below the molecule they belong to.

How the values were obtained:
[1] = target: FILIP1 (filamin A-interacting protein 1), carboxy-terminus (CT) carboxy-terminus (CT) (UniProt Q7Z7B0); assay: anti-Myc co-immunoprecipitation, quantitative immunoblot; conditions: reference: wild type; sites S2233,S2236
[2] = target: FILIP1 (filamin A-interacting protein 1), carboxy-terminus (CT) carboxy-terminus (CT) (UniProt Q7Z7B0); assay: co-immunoprecipitation, quantitative immunoblot; conditions: reference: wild type; sites S2233,S2236
[3] = target: T1, FILIP1 CT-GFP (expressed in HEK293 cells) (UniProt Q7Z7B0-2 776-1177); assay: fluorescence correlation spectroscopy (competition); recombinant FLNc d19–21 (44,000 to 21 nM) or its DD mutant (60,000 to 78 nM) titrated to HEK293T lysate with FILIP1 CT-GFP bound to Myc-hFLNc d18–21 DD; PBS pH 7.4, 0.05% Tween-20, 20 °C; conditions: one partner purified
T1 construct: FILIP1 carboxy-terminus (CT); also called FILIP1-GFP CT; wild-type FILIP1 CT-GFP; source: HEK293 (HEK293T), transfected, in lysate
T1 sequence (looked up): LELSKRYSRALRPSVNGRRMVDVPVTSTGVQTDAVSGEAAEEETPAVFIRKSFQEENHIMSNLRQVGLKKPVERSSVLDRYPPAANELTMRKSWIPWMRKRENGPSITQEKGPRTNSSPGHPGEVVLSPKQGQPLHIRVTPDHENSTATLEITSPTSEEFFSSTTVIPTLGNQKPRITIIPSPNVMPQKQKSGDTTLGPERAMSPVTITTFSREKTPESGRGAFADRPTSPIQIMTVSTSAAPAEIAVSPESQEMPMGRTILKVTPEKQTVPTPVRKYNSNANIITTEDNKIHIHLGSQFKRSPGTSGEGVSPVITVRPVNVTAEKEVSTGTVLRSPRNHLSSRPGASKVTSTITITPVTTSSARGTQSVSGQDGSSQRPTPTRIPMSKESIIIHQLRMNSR

binding against the reference [1]: stronger
binding against the reference [2]: stronger
Molecule: human filamin-C (hFLNc) Ig-like domains 18-21 (d18–21) (from UniProt Q14315) AA (S2233A/S2236A)

Kd [3]: 1170 nM
B1: recombinant hFLNc d19–21, wild type (domain or fragment, human, UniProt Q14315 2036-2410, looked up)
chain: SEIGDASKVRVWGKGLSEGHTFQVAEFIVDTRNAGYGGLGLSIEGPSKVDINCEDMEDGTCKVTYCPTEPGTYIINIKFADKHVPGSPFTVKVTGEGRMKESITRRRQAPSIATIGSTCDLNLKIPGNWFQMVSAQERLTRTFTRSSHTYTRTERTEISKTRGGETKREVRVEESTQVGGDPFPAVFGDFLGRERLGSFGSITRQQEGEASSQDMTAQVTSPSGKVEAAEIVEGEDSAYSVRFVPQEMGPHTVAVKYRGQHVPGSPFQFTVGPLGEGGAHKVRAGGTGLERGVAGVPAEFSIWTREAGAGGLSIAVEGPSKAEIAFEDRKDGSCGVSYVVQEPGDYEVSIKFNDEHIPDSPFVVPVASLSDDARR
notes: human filamin-C, Ig-like domains 19–21; also called wildtype hFLNc d19–21; non-phosphorylated hFLNc d19–21
